The values that follow come from US20250051437A1 (University of California, published 2025).

Assay [1] addresses T1, human cadherin-17 (CDH17), endogenously expressed on human cancer cell lines (LS513, SNU-C1, PaTu8988s, … (human, UniProt Q12864 23-832)).
T1 construct: also called LS513 (Colon, CDH17+); HPAF2
The experiment in a line: flow cytometry (iQue) on PATU8988S cells, 1 µg Ab.

The target in assay [2] is T1, human cadherin-17 (CDH17), endogenously …. The experiment in a line: flow cytometry on LS513 cells (CDH17+), 20 µg/ml.
Assay [3] deals with T2, mouse CDH17-mGFP fusion protein overexpressed on HEK293T cells (mouse, UniProt Q9R100 26-827).
T2 construct: also called HEK293T Mouse CDH17mGFP mass; not shown: mGFP fluorescent protein
The experiment in a line: flow cytometry on HEK293T mouse CDH17mGFP mass population, 20 µg/ml.

In assay [4] the target is T1, human cadherin-17 (CDH17), endogenously …. The experiment in a line: flow cytometry (iQue) on PATU8988S cells, 0.2 µg Ab.
Assay [5] addresses T2, mouse CDH17-mGFP fusion protein …. The experiment in a line: flow cytometry (BD C6) on HEK293T Mouse CDH17 mGFP cells. As for the experimental part:
(§1) To determine relative antigen binding strengths of the humanized antibodies, FACS assays were carried out as essentially described in Example 1. […] Using a BD Biosciences Accuri™ C6 Flow Cytometer (San Jose, CA), antibody binding based on Alexa Fluor® 647 fluorescence was measured in the FL4-H channel and fusion protein overexpression based on GFP fluorescence was measured in the FL1-H channel.

For assay [6], the target named is T3, human CDH17-mGFP fusion protein overexpressed on HEK293T cells (clone G11) (human, UniProt Q12864 23-832).
T3 construct: also called HEK293T CDH17mGFP Clone G11; HEK293T Human CDH17mGFP G11; not shown: mGFP fluorescent protein fused to CDH17
The experiment in a line: flow cytometry on HEK293T human CDH17mGFP G11, 20 µg/ml.

Assay [7] addresses T4, rat CDH17 fused to moxGFP, overexpressed on HEK293T cells (rat, UniProt P55281 22-827).
T4 construct: whole, on cells; also called HEK293T Rat CDH17mGFP mass pop; rat CDH17-moxGFP
The experiment in a line: flow cytometry on HEK293T rat CDH17mGFP mass population, 20 µg/ml.

In assay [8] the target is T1, human cadherin-17 (CDH17), endogenously …. The experiment in a line: flow cytometry (iQue) on SNUC1 cells, 0.2 µg Ab.
Assay [9] shares this target. The experiment in a line: flow cytometry (iQue) on SNUC1 cells, 1 µg Ab.
The target of assay [10] is T3, human CDH17-mGFP fusion protein …. The experiment in a line: KinExA, cell-based, HEK293T human CDH17mGFP G11 (same value as r12). As for the experimental part: (§2) The cell-based antibody affinity (KD) of the anti-CDH17 antibodies was measured by KinExA 4000 (Sapidyne Instrument, Boise, Idaho). Briefly, HEK293T overexpressing CDH17-fluorescent protein fusion (i.e., human CDH17-mGFP, monkey CDH17-mGFP, mouse CDH17-mGFP or rat CDH17-mGFP) were detached with Versene and equilibrated with either 50 pM, 200 pM, 20 nM, or 50 nM antibody in 2% FBS/DMEM at 4° C. overnight. The cell concentration started at 5×10⁶ cells/mL or 1×10⁷ cells/mL and 2-fold serial dilutions were performed up to 10 points. The next day, the cells were centrifuged at 1500 rpm for 10 min and the supernatants were saved. […] In contrast, while the humanized anti-CDH17 antibody, 07-0653-h43, fails to bind mouse CDH17 protein, it binds rat CDH17 protein equally well as to human and monkey CDH17 protein such that its Kp is less than about 1 nM for human, monkey and rat CDH17 proteins with overlapping 95% confidence interval values.

The target is the same in assay [11]. The experiment in a line: flow cytometry (iQue) on HEK293T CDH17 mGFP clone G11 (human), 0.2 µg Ab.
Assay [12] concerns the target T1, human cadherin-17 (CDH17), endogenously …. The experiment in a line: flow cytometry (iQue) on LS513 cells, 1 µg Ab.
In assay [13] the target is T3, human CDH17-mGFP fusion protein …. The experiment in a line: KinExA, cell-based, HEK293T overexpressing human CDH17-mGFP (FIG. 16). As for the experimental part: as §2
Assay [14] concerns the target T5, recombinant CDH17 extracellular domain (ECD) with 6x His tag (human, UniProt Q12864 23-787).
T5 construct: also called Recombinant CDH17 ECD-6xhis tag
The experiment in a line: ELISA on recombinant CDH17 ECD-6xHis.

The target in assay [15] is T3, human CDH17-mGFP fusion protein …. The experiment in a line: KinExA, cell-based, HEK293T CDH17mGFP clone G11. The protocol:
as §2

Assay [16] addresses T4, rat CDH17 fused to moxGFP, …. The experiment in a line: flow cytometry (BD C6) on HEK293T Rat CDH17 moxGFP cells. As for the experimental part: as §1
Assay [17] addresses T1, human cadherin-17 (CDH17), endogenously …. The experiment in a line: KinExA, cell-based, SNUC1 cells.
Assay [18] deals with T3, human CDH17-mGFP fusion protein …. The experiment in a line: flow cytometry (iQue) on HEK293T CDH17 mGFP clone G11 (human), 1 µg Ab.
Assay [19] has as its target T1, human cadherin-17 (CDH17), endogenously …. The experiment in a line: flow cytometry (iQue) on LS513 cells, 0.2 µg Ab.
Assay [20] shares this target. The experiment in a line: flow cytometry of the ADC on LS513 cells (CDH17+), 20 µg/ml.
For assay [21] the target is unchanged. The experiment in a line: indirect flow cytometry (iQue) on LS513 cells (CDH17+), anti-His secondary antibody. As for the experimental part:
Bispecific antibodies and scFv fragments were assessed for their binding effect to CDH17 positive cells by an indirect flow cytometry assay iQue® (Sartorius, Gottingen, Germany). The asssays were performed with CDH17 positive LS513 cells or CDH17 negative M202 cells using the primary antibody and fluorochrome-labeled anti-His secondary antibody using the iQue® where FL4-H values acquired by iQue® software were reported.

T4 sequence (P55281 22-827): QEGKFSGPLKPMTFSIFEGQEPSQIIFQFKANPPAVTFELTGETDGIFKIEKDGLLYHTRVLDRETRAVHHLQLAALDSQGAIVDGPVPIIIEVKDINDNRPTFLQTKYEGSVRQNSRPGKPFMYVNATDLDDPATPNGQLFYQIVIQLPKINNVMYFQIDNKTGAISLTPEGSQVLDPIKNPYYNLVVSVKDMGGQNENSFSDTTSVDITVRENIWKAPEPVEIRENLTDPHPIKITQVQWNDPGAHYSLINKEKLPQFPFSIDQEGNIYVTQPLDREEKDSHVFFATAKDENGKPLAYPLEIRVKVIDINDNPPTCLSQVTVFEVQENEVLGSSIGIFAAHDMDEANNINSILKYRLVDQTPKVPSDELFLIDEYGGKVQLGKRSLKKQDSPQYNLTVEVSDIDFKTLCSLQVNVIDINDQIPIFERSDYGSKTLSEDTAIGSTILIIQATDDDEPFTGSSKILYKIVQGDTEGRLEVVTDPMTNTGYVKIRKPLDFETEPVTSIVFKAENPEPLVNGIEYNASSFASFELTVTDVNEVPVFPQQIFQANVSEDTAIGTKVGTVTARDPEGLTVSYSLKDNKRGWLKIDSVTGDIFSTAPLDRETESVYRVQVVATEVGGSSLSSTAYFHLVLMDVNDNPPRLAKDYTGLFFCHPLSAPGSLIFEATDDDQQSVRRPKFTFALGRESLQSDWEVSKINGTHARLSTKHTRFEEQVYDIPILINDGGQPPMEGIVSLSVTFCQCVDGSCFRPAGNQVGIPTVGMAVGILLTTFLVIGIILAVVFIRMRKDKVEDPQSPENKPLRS
T2 sequence (Q9R100 26-827): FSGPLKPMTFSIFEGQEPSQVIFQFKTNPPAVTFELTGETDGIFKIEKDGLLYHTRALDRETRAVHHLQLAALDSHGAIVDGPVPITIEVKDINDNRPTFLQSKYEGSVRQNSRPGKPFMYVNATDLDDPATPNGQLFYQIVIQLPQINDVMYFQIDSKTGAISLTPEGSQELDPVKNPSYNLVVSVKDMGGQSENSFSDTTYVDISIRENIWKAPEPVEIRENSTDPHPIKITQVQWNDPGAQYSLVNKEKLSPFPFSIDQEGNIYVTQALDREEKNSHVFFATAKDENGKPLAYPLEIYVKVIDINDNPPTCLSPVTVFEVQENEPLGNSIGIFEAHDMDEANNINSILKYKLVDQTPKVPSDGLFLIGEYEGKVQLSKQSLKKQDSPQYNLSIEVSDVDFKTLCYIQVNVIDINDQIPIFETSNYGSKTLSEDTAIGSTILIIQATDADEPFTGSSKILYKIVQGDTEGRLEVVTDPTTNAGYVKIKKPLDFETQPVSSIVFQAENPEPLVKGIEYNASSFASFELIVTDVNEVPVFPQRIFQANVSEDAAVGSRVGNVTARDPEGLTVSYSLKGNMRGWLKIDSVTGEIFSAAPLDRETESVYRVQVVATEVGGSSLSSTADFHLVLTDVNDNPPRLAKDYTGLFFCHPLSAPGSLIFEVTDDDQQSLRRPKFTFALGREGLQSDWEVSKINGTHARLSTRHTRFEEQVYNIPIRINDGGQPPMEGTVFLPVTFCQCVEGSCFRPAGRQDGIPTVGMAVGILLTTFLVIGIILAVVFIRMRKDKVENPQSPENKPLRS

B1: humanized anti-CDH17 antibody 07-0646-h7 (antibody, human IgG1, V domains shown)
VH: QVQLVQSGAEVKKPGASVKMSCKASGYTFTSYNMHWVRQAPGQGLEWIGAIYPGNGDTSYAQKFQGRATLTVDTSTSTAYMELSSLRSEDTAVYYCARGRGRYFEYWGQGTTLTVSS
VL: DIQLTQSPSSLSASVGDRVTMTCRASSSVSSSYLHWYQQKPGKAPKLLIYSTSNLASGVPSRFSGSGSGTDYTLTISSVQPEDFATYYCQQYDSSPSTFGQGTKLEIK
notes: C-terminal lysine kept in the humanized antibodies; also called CDH17-646-h7; 07-646-h7
As to B1, the “Antibody Binding Activity by Flow iQue” value in assay [1] was 95600; in assay [4], 21400; in assay [8], 120000; in assay [9], 74900; in [11], 50500; in [12], 2.66e+06. For the same molecule, the entries for the “Antibody Binding Activity by Flow iQue” value in assay [18] and in [19] were 181000 and 2.86e+06, respectively. Further, the “Antibody Binding Activity by Flow Cytometry” value in assay [2] is 47200. Moreover, the “Cross Reactivity by Flow” value in assay [3] is 2510; in assay [6], 50500; in [7], 2200. The binding result in assay [5] and in [16] was “no binding (tested: 1 µg)” each time. Also, the Kd in assay [10] is 0.817 nM; in assay [13], less than 1 nM; in assay [15], 0.817 nM; in assay [17], 0.532 nM. The EC50 in [14] worked out at 0.73 nM.

B2: 07-0646-h7-VC-PAB-MMAE (antibody, human IgG1, DAR about 4, V domains shown)
VH: B1 VH
VL: B1 VL
modifications: MC-VC-PAB-MMAE on free thiols of cysteines from reduced interchain disulfides; positions not given; MC-VC-PAB-MMAE on free thiols of cysteines from reduced interchain disulfides; average 4 MMAE per antibody; positions not given
notes: also called CDH17-ADC-646-h7; 07-0646-h7-MMAE
Take B2: in assay [20], the “ADC Binding Activity by Flow Cytometry” value was determined as 73500.

B3: 07-0663-h7-VC-PAB-MMAE (antibody, human IgG1, kappa, DAR about 4, V domains shown)
VH: QVQLVQSGAEVKKPGSSVKISCKVSGYTFTDHTIHWMRQAPGQGLEWIGYIFPRDDIVVYAQKFQGRATLTADKSTSTAYMELSSLRSEDTAVYYCARPPYYYSRNFYFDYWGQGTTLTVSS
VL: DIQMTQSPSSLSASVGDRVTITCRVSSIISSSKLHWYQQKPGKAPKPLIYGTSTLASGVPSRFSGSGSGTDYTLTISSLQPEDFATYYCQQWSNYPFTFGQGTKLEIKR
modifications: MC-VC-PAB-MMAE on free thiols of cysteines from reduced interchain disulfides; positions not given; MC-VC-PAB-MMAE on free thiols of cysteines from reduced interchain disulfides; average 4 MMAE per antibody; positions not given
With B3, the “ADC Binding Activity by Flow Cytometry” value in assay [20] turned out to be 67400.

B4: 07-0653-h43-VC-PAB-MMAE (antibody, human IgG1, DAR about 4, V domains shown)
VH: QVQLVQSGAEVKKPGASVKVSCKASGYTFTDYYMNWVRQAPGQGLEWMGVIYPYSGGIGYAQKFQGRVTMTVDKSTSTAYMELSSLRSEDTAVYYCARGRGDYFGLFDFWGQGTTVTVSS
VL: DIQLTQSPSSLSASVGDRVTITCRATSSLSYIHWYQQKPGKAPKPLIYEISKLASGVPSRFSGSGSGTDYTLTISSLQPEDFATYYCQQWNYPFTFGQGTKLEIK
modifications: MC-VC-PAB-MMAE on free thiols of cysteines from reduced interchain disulfides; positions not given; MC-VC-PAB-MMAE on free thiols of cysteines from reduced interchain disulfides; average 4 MMAE per antibody; positions not given
notes: also called CDH17-ADC-653-h43; 07-0653-h43-MMAE
On to B4, for which the “ADC Binding Activity by Flow Cytometry” value in assay [20] amounted to 35100.

B5: 07-0653-h43scFv anti-CDH17 scFv (scFv)
scFv: DIQLTQSPSSLSASVGDRVTITCRATSSLSYIHWYQQKPGKAPKPLIYEISKLASGVPSRFSGSGSGTDYTLTISSLQPEDFATYYCQQWNYPFTFGQGTKLEIKGGGGSGGGGSGGGGSQVQLVQSGAEVKKPGASVKVSCKASGYTFTDYYMNWVRQAPGQGLEWMGVIYPYSGGIGYAQKFQGRVTMTVDKSTSTAYMELSSLRSEDTAVYYCARGRGDYFGLFDFWGQGTTVTVSSHHHHHH
notes: VL-linker-VH; also called CDH17-653-h43scfv
In assay [21], B5 came in with an FL4-H of 2.21e+06.

B6: 07-0646-h7scFv anti-CDH17 scFv (scFv)
scFv: DIQLTQSPSSLSASVGDRVTMTCRASSSVSSSYLHWYQQKPGKAPKLLIYSTSNLASGVPSRFSGSGSGTDYTLTISSVQPEDFATYYCQQYDSSPSTFGQGTKLEIKGGGGSGGGGSGGGGSQVQLVQSGAEVKKPGASVKMSCKASGYTFTSYNMHWVRQAPGQGLEWIGAIYPGNGDTSYAQKFQGRATLTVDTSTSTAYMELSSLRSEDTAVYYCARGRGRYFEYWGQGTTLTVSSHHHHHH
notes: VL-linker-VH; also called CDH17-646-h7scfv; 07-0646-7scFv
In assay [21], B6 yielded an FL4-H of 864000.

B7: 07-0663-h7scFv anti-CDH17 scFv (scFv)
scFv: DIQMTQSPSSLSASVGDRVTITCRVSSIISSSKLHWYQQKPGKAPKPLIYGTSTLASGVPSRFSGSGSGTDYTLTISSLQPEDFATYYCQQWSNYPFTFGQGTKLEIKGGGGSGGGGSGGGGSQVQLVQSGAEVKKPGSSVKISCKVSGYTFTDHTIHWMRQAPGQGLEWIGYIFPRDDIVVYAQKFQGRATLTADKSTSTAYMELSSLRSEDTAVYYCARPPYYYSRNFYFDYWGQGTTLTVSSHHHHHH
notes: VL-linker-VH
As to B7, in assay [21], the FL4-H worked out at 2.05e+06.
